Assay [1] has as its target bovine serum albumin (BSA) (bovine, UniProt P02769 25-607). Description: binding ELISA. For orientation: An ELISA detects its analyte on a solid surface through an enzyme-linked reagent.
Assay [2] deals with T1, recombinant secretory human HB-EGF manufactured by R & D System (catalogue number 259-HE/CF) (human, UniProt Q99075 63-148, biotin-labeled with EZ-Link Sulfo-NHS-Biotin in the EGFR binding inhibition assay only).
T1 construct: Bought protein; also called recombinant human HB-EGF; secretory HB-EGF
Put plainly: Biacore T-100, HB-EGF immobilized on CM5 chip, antibody as analyte. As to the method: In order to analyze binding activities of a mouse antibody KM3566 and the chimeric antibody KM3966 for human HB-EGF in reaction kinetics, the binding activity measurement was carried out using Biacore. All of the following operations were carried out using Biacore T-100 (manufactured by Biacore). Human HB-EGF (manufactured by R & D) prepared into 5 μg/ml using HBS-EP Buffer (manufactured by Biacore) was immobilized onto a CM 5 sensor chip (manufactured by Biacore) to a level of 80 RU (resonance unit) by an amine coupling method. Thereafter, each antibody diluted 5-fold from 9 nmol/l was let flow on the chip at a rate of 10 μl/min, and by analyzing the sensor-gram at each concentration, the association rate constant and dissociation rate constant of each antibody for human HB-EGF were calculated.
It was confirmed based on the results that both antibodies almost the same binding activity for human HB-EGF.

Assay [3] has as its target T2, mutant HB-EGF in which serine at position 147 from the N-terminal was substituted with threonine (human, UniProt Q99075 63-148).
T2 construct: Transiently expressed on mouse LMTK cells; also called S147T
T2 chain: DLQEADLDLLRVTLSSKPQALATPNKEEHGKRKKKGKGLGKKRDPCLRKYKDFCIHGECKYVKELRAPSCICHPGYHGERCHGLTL
Description: cell ELISA, biotin-labeled antibody on mutant HB-EGF gene-transferred LMTK cells, corrected for expression with H-6. As to the method: Firstly, biotin-labeled anti-HB-EGF antibody (KM3566, KM3579 or KM3966) diluted to 2 μg/ml with a binding buffer (prepared by adding nonessential amino acids, 20 mM HEPES-NaOH (pH 7.2) and 10% fetal bovine serum to Ham's F12) was allowed to react at 4° C. for 2 hours with 1×10⁵ cells of the mutant HB-EGF gene-transferred cell, human/mouse chimeric HB-EGF gene-transferred cell or mock. After the reaction, the cells were washed twice with an ice-cooled washing buffer (prepared by adding 0.5 mM CaCl₂, 0.5 mM MgCl₂ and 0.1% fetal bovine serum to PBS) and then once with PBS(+) (prepared by adding 0.5 mM CaCl₂ and 0.5 mM MgCl₂ to PBS). A formaldehyde solution diluted to 1.8% with PBS(+) was added to the washed cells, and the cells were fixed at 4° C. for 20 minutes. […] By carrying out development of color using a peroxidase detection kit (ELISA POD Substrate OPD Kit, manufactured by Nacalai Tesque), the absorbance at 492 nm was measured and the activity of cell-bonded HRP was measured.
A value obtained by subtracting the absorbance for mock from the absorbance for each of the various mutant HB-EGF gene-transferred cells or human/mouse chimeric HB-EGF gene-transferred cells of the anti-HB-EGF antibody was used as the value A. […]

Sequence of bovine serum albumin (BSA) (P02769 25-607 limits assumed): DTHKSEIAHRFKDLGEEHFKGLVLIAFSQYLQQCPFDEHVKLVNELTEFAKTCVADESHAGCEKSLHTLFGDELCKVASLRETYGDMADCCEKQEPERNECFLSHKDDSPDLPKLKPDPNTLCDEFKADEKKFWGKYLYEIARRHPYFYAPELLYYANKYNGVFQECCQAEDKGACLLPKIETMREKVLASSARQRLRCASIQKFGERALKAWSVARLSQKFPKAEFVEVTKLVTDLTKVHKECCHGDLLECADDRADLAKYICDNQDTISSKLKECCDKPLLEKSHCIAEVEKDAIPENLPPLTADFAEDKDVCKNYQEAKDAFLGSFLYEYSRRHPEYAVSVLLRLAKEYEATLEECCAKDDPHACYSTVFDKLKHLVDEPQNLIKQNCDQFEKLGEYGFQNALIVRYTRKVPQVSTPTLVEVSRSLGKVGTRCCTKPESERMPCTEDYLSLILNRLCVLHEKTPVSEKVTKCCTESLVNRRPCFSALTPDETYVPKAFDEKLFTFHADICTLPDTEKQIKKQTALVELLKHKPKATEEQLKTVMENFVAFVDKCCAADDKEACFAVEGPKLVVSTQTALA

B1: anti-HB-EGF monoclonal antibody KM3566 (antibody, V domains shown)
VH: QVQLQQSGTELARPGASVKLSCKASGYTFRTYGITWVKQRTGQGLEWIGEIFPGSGNTYYNEKFKGKASLTADKSSSTAYMQLSSLTSEDSAVYFCARESFSDGYYGYFDYWGQGTTLTVSS
VL: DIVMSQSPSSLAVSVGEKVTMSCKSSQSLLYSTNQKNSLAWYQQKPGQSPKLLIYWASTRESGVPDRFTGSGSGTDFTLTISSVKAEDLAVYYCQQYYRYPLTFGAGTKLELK
notes: also called anti-HB-EGF mouse antibody KM3566; monoclonal antibody produced by hybridoma KM3566 (FERM BP-10490)
As usually defined, the kon is a measure of how fast the partners come together. For B1, the binding result in assay [1] is recorded as “no binding”. In assay [2], the kon was determined as 270000 M⁻¹ s⁻¹.

B2: anti-HB-EGF chimeric antibody KM3966 (antibody, V domains shown)
VH: QVQLQQSGTELARPGASVKLSCKASGYTFRTYGITWVKQRTGQGLEWIGEIFPGSGNTYYNEKFKGKASLTADKSSSTAYMQLSSLTSEDSAVYFCARESFSDGYYGYFDYWGQGTTLTVSS
VL: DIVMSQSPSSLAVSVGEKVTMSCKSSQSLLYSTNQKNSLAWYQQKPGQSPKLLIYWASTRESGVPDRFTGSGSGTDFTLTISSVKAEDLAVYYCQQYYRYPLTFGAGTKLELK
notes: also called human chimeric antibody KM3966; anti-HB-EGF monoclonal antibody KM3966
With B2, the kon in assay [2] turned out to be 240000 M⁻¹ s⁻¹. Moreover, the “relative binding activity (ratio to pRTHGC-6)” value in assay [3] was ~0.33 fraction of binding to pRTHGC-6.

The record behind these values is patent US20110052595A1 (Kyowa Kirin, published 2011).
